The record followed here is PMC6010298.

What is called Kd is the free concentration of one partner at which half of the binding sites on the other are occupied at equilibrium, for simple one-to-one binding. Read a low Kd as tighter binding.

Data set [1] addresses His6-tagged ComE (response regulator ComE, wild type). In words: Sandwich fluorescence-linked immunosorbent assay (FLISA). Conditions: no added salt stated (50 mM Bis-Tris-Propane-HCl, 1 mM MgCl2), 1 mM MgCl2, pH 7.8 or the same buffer at pH 6.0.
In data set [2] the target is His6-tagged ComE T128A (non-phosphorylatable) T128A. Described as above. Conditions: no added salt stated (50 mM Bis-Tris-Propane-HCl, 1 mM MgCl2), 1 mM MgCl2, pH 7.8 or the same buffer at pH 6.0.
The target in data set [3] is His6-tagged ComE T128E (phosphomimetic) T128E. Described as above. The conditions noted are these: no added salt stated (50 mM Bis-Tris-Propane-HCl, 1 mM MgCl2), 1 mM MgCl2, pH 7.8 or the same buffer at pH 6.0.
Data set [4] has as its system ComE D58E (Hisx6) (Streptococcus pneumoniae R801). Briefly: EMSA. For orientation: Mobility shift assays separate free from complexed probe on a gel.
The test system of data set [5] is ComE T128A (Hisx6) (Streptococcus pneumoniae R801). Briefly: EMSA.
The subject of data set [6] is ComE T128E (Hisx6) (Streptococcus pneumoniae R801). Briefly: EMSA.
In data set [7] the test system is ComE wt (Hisx6) (Streptococcus pneumoniae R801). Briefly: EMSA.
The mark [8] stands for this setting: pH 6.0, 37°C (binding step, 1 h).
The mark [9] stands for this setting: pH 7.8, 37°C (binding step, 1 h).

Take “GST-StkP (serine/threonine protein kinase StkP, wild type)”: the K1/2 in data set [1] (setting [8]) worked out at 94 ng; in data set [1] (setting [9]) it was 330 ng; in data set [2] (setting [8]), 100 ng; in data set [2] (setting [9]), 110 ng; in data set [3] (setting [8]) it was 3200 ng; in data set [3] (setting [9]), 900 ng.

In the case of GST-StkP K42M (kinase-inactive) K42M, the K1/2 in data set [1] (setting [8]) amounted to 55 ng; in data set [1] (setting [9]), 140 ng; in data set [2] (setting [8]) it was 100 ng; in data set [2] (setting [9]) it was 80 ng.

For the substance pcomC (comCDE promoter), the Kd was 21 nM in data set [4], 375 nM in data set [5], 74 nM in data set [6] and 371 nM in data set [7].
